Results reported in patent publication US8329178B2.

Tests used:
Experiment in all cases: FACS, 293T cells expressing CXCR4 variants
[1] = molecular target: CXCR2/CXCR4 chimera 2442 (human) (UniProt P61073)
[2] = molecular target: human CXCR4 (wild type) (human) (UniProt P61073)
[3] = molecular target: CXCR2/CXCR4 chimera 2444b (human) (UniProt P61073)
[4] = molecular target: CXCR2/CXCR4 chimera 4442 (human) (UniProt P61073)
ΔN25-CXCR4 (human) = ΔN25-CXCR4 (human) (UniProt P61073)
ΔN31-CXCR4 (human) = ΔN31-CXCR4 (human) (UniProt P61073)

Substance: murine monoclonal antibody 12G5
- binding to cells expressing the variant (+%) [1]: 85.8%
- binding to cells expressing the variant (+%) [2]: 100%
- binding to cells expressing the variant (+%) [3]: 70.1%
- binding to cells expressing the variant (+%) [4]: 103%
- binding to cells expressing the variant (+%) (ΔN25-CXCR4 (human)): 69.2%
- binding to cells expressing the variant (+%) (ΔN31-CXCR4 (human)): 55.4%
